B1: CPEB3 Ribozyme (parent)
chain: GGGGGCCACAGCAGAAGCGUUCACGUCGCGGCCCCUGUCAGAUUCUGGUGAAUCUGCGAAUUCUGCUGU

Variants of: B1
Test: self-cleavage, relative activity (ratio to wild type); higher = more cleavage; co-transcriptional

First: GGGGGCCACAGGUGAAGCGUUCACGUCGCGGCCCCUGUCAGAUUCUGGUGAAUCUGCGAAUUCUGCUGU [C12G A13U]
Second: GGGGGCCACAGGCGAAGCGUUCACGUCGCGGCCCCUGUCAGAUUCUGGUGAAUCUGCGAAUUCUGCUGU [C12G A13C]
The self-cleavage of the first is lower: 0.129 for the first, 0.26 for the second.

Compared with GGGGGCCACAGGAGAAGCGUUCACGUCGCGGCCCCUGUCAGAUUCUGGUGACUCUGCGAAUUCUGCUGU [C12G A52C], GGGGGCCACAGGAGAAGCGUUCACGUCGCGGCCCCUGUCAGAUUCUGGUGAGUCUGCGAAUUCUGCUGU [C12G A52G] is higher in self-cleavage: 0.792 for the first, 0.94 for the second.

Going from GGGGGCCACAGGAGAAGCGUUCACGUCGCGGCCCCUGUCAGAUUCUGGUGAUUCUGCGAAUUCUGCUGU [C12G A52U] to GGGGGCCACAGGAGAAGCGUUCACGUCGCGGCCCCUGUCAGAUUCUGGUGAAUCUGCGACUUCUGCUGU [C12G A60C], the self-cleavage falls from 0.852 to 0.277.

First: GGGGGCCACAGGAGAAGCGUUCACGUCGCGGCCCCUGUCAGAUUCUGGUGAAUCUGCGAGUUCUGCUGU [C12G A60G]
Second: GGGGGCCACAGGAGAAGCGUUCACGUCGCGGCCCCUGUCGGAUUCUGGUGAAUCUGCGAAUUCUGCUGU [C12G A40G]
The self-cleavage of the first is lower: 0.451 for the first, 0.672 for the second.

Compared with GGGGGCCACAGGAGAAGCGUUCACGUCGCGGCCCCUGUCUGAUUCUGGUGAAUCUGCGAAUUCUGCUGU [C12G A40U], GGGGGCCACAGAAGAAGCGUUCACGUCGCGGCCCCUGUCAGAUUCUGGUGAAUCUGCGAAUUCGGCUGU [C12A U64G] is higher in self-cleavage: 0.404 for the first, 0.674 for the second.

Going from GGGGGCCACAGAAGAAGCGUUCACGUCGCGGCCCCUGUCAGAUUCUGGUGAAUCGGCGAAUUCUGCUGU [C12A U55G] to GGGGGCCACAGAAGAAGCGUUCACGUCGCGGCCCCUGUCAGAUUCUGGUGAAUCAGCGAAUUCUGCUGU [C12A U55A], the self-cleavage rises from 0.172 to 0.23.

Compared with GGGGGCCACAGGAGAGGCGUUCACGUCGCGGCCCCUGUCAGAUUCUGGUGAAUCUGCGAAUUCUGCUGU [C12G A16G], GGGGGCCACAGGAGAAGCGUUCACGUCGCGGCCCCUGUCAGAUUCUGGUGCAUCUGCGAAUUCUGCUGU [C12G A51C] is higher in self-cleavage: 0.578 for the first, 0.79 for the second.

Going from GGGGGCCACAGGAGAAGCGUUCACGUCGCGGCCCCUGUCAGAUUCUGGUGGAUCUGCGAAUUCUGCUGU [C12G A51G] to GGGGGCCACAGAAGAAGCGUUCACGUCGCGGCCCCUGUCAGAUUCUGGUGAAGCUGCGAAUUCUGCUGU [C12A U53G], the self-cleavage falls from 0.887 to 0.335.

Compared with GGGGGCCACAGAAGAAGCGUUCACGUCGCGGCCCCUGUCAGAUUCUGGUGAAACUGCGAAUUCUGCUGU [C12A U53A], GGGGGCCACAGGAGCAGCGUUCACGUCGCGGCCCCUGUCAGAUUCUGGUGAAUCUGCGAAUUCUGCUGU [C12G A15C] is lower in self-cleavage: 0.354 for the first, 0.301 for the second.

First: GGGGGCCACAGGAGGAGCGUUCACGUCGCGGCCCCUGUCAGAUUCUGGUGAAUCUGCGAAUUCUGCUGU [C12G A15G]
Second: GGGGGCCACAGGAGUAGCGUUCACGUCGCGGCCCCUGUCAGAUUCUGGUGAAUCUGCGAAUUCUGCUGU [C12G A15U]
The self-cleavage of the first is higher: 0.613 for the first, 0.171 for the second.

Compared with GGGGGCCACAGGAGAAGCGUUCACGUCGCGGCCCCUGUCAGAUUCUGGUGAAUCUGCGCAUUCUGCUGU [C12G A59C], GGGGGCCACAGGAGAAGCGUUCACGUCGCGGCCCCUGUCAGAUUCUGGUGAAUCUGCGGAUUCUGCUGU [C12G A59G] is higher in self-cleavage: 0.339 for the first, 0.802 for the second.

Compared with GGGGGCCACAGGAGAAGGGUUCACGUCGCGGCCCCUGUCAGAUUCUGGUGAAUCUGCGAAUUCUGCUGU [C12G C18G], GGGGGCCACAGGAGAAGUGUUCACGUCGCGGCCCCUGUCAGAUUCUGGUGAAUCUGCGAAUUCUGCUGU [C12G C18U] is higher in self-cleavage: 0.0782 for the first, 0.178 for the second.

First: GGGGGCCACAGGAGAAGAGUUCACGUCGCGGCCCCUGUCAGAUUCUGGUGAAUCUGCGAAUUCUGCUGU [C12G C18A]
Second: GGGGGCCACAGAAGAAGCGUUCACGUCGCGGCCCCUGUCAGAUUCUGGGGAAUCUGCGAAUUCUGCUGU [C12A U49G]
The self-cleavage of the first is lower: 0.185 for the first, 0.846 for the second.

Compared with GGGGGCCACAGAAGAAGCGUUCACGUCGCGGCCCCUGUCAGAUUCUGGUGAAUCUGCGAAUACUGCUGU [C12A U62A], GGGGGCCACAGAAGAAGCGUUCACGUCGCGGCCCCUGUCAGAUUCUGGUGAAUCUGCGAAUGCUGCUGU [C12A U62G] is higher in self-cleavage: 0.248 for the first, 0.312 for the second.

Going from GGGGGCCACAGAAGAAGCGUUCACGUCGCGGCCCCUGUCAGAUUCUGGUGAAUCUGCGAAAUCUGCUGU [C12A U61A] to GGGGGCCACAGAAGAAGCGUUCACGUCGCGGCCCCUGUCAGAUUCUGGUGAAUCUGCGAACUCUGCUGU [C12A U61C], the self-cleavage falls from 0.312 to 0.246.

First: GGGGGCCACAGAAGAAGCGUUCACGUCGCGGCCCCUGUCAGAUUCUGGUGAAUCUGCGAAGUCUGCUGU [C12A U61G]
Second: GGGGGCCACAGAAGAAGCGUUCACGUCGCGGCCCCUGUCAGAUUCUGGUGAAUCUGCGAAUUCUGCUGA [C12A U69A]
The self-cleavage of the first is lower: 0.316 for the first, 0.886 for the second.

Going from GGGGGCCACAGAAGAAGCGUUCACGUCGCGGCCCCUGUCAGAUUCUGGUGAAUCUGCGAAUUCUGCUGC [C12A U69C] to GGGGGCCACAGAAGAAGCGUUCACGUCGCGGCCCCUGUCAGAUUCUGGUGAAUCUGCGAAUUCUGCAGU [C12A U67A], the self-cleavage falls from 0.981 to 0.671.

Compared with GGGGGCCACAGAAGAAGCGUUCACGUCGCGGCCCCUGUCAGAUUCUGGUGAAUCUGCGAAUUCUGCCGU [C12A U67C], GGGGGCCACAGAAGAAGCGUUCACGUCGCGGCCCCUGUCAGAUUCUGGUGAAUCUGCGAAUUCUGCGGU [C12A U67G] is lower in self-cleavage: 0.812 for the first, 0.791 for the second.

Going from GGGGGCCACAGGAGAAGCGUUCACGUCGCGGCCCCUGUCAGCUUCUGGUGAAUCUGCGAAUUCUGCUGU [C12G A42C] to GGGGGCCACAGGAGAAGCGUUCACGUCGCGGCCCCUGUCAGGUUCUGGUGAAUCUGCGAAUUCUGCUGU [C12G A42G], the self-cleavage rises from 0.493 to 0.649.

GGGGGCCACAGGAGAAGCGUUCACGUCGCGGCCCCUGUCAGUUUCUGGUGAAUCUGCGAAUUCUGCUGU [C12G A42U] showed a self-cleavage of 0.61.
